In paper PMC6389942:

Molecular target: HA-Cep57 (centrosomal protein of 57 kDa, full length), Q86XR8-1
Experiment: co-IP (FLAG IP, HA-Cep57 western blot band quantification)
Conditions: HEK293T cells; three independent experiments; parent: est. 1.0; read off a plot

HA-Cep57 (centrosomal protein of 57 kDa, full length), Q86XR8-1, sequence (Q86XR8 whole entry): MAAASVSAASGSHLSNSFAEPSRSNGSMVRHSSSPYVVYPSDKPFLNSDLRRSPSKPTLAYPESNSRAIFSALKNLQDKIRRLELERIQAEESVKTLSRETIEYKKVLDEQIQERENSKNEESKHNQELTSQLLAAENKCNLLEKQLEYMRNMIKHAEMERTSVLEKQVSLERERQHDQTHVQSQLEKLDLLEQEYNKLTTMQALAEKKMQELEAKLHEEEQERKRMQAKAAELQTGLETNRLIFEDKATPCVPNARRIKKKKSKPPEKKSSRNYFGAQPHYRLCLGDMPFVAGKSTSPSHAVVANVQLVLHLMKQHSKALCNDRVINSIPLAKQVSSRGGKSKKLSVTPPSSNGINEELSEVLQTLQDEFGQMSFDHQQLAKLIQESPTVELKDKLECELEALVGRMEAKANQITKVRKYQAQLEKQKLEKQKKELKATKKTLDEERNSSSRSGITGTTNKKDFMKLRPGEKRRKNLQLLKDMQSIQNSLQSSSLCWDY

response: 0.11
Substance: FLAG-PCNT 2536–3336 WT K3154del
